“And” between values parts separate entries of the source, which are not always exact repeats. Identical values can stand only once. Like-named read-outs stand apart in the source and are kept apart here. One block for each molecule: values may come before it. No end group written: not given here. *: point of attachment. 125I = [125I]*
Key:
[1] = molecular target: human parathyroid hormone type 2 receptor (PTH2 receptor) (human) (UniProt P49190); assay: displacement of [125I]TIP39, HEK293 membranes, with against without GTPγS
[2] = molecular target: human parathyroid hormone type 2 receptor (PTH2 receptor) (human) (UniProt P49190); assay: displacement of [125I]TIP39, HEK293 membranes, centrifugation assay
[3] = molecular target: human parathyroid hormone type 1 receptor (PTH1 receptor) (human) (UniProt Q03431); assay: Motulsky and Mahan kinetic competition with [125I]TIP(7-39), HEK293 membranes
[4] = molecular target: C-terminal hemaglutinin-tagged human PTH1 receptor (Example 11) (human) (UniProt Q03431); assay: cell-based or functional assay
[5] = molecular target: human parathyroid hormone type 2 receptor (PTH2 receptor) (human) (UniProt P49190); assay: cell-based or functional assay
rat PTH2 receptor = rat PTH2 receptor (rat, UniProt P70555 25-546); assay: cell-based or functional assay
[6] = molecular target: human parathyroid hormone type 1 receptor (PTH1 receptor) (human) (UniProt Q03431); assay: radioligand binding to the PTH1 receptor
[7] = molecular target: human parathyroid hormone type 1 receptor (PTH1 receptor) (human) (UniProt Q03431); assay: direct dissociation of the radioligand from the PTH1 receptor
[8] = molecular target: human parathyroid hormone type 2 receptor (PTH2 receptor) (human) (UniProt P49190); assay: membrane radioligand binding, absence of GTPγS
[9] = molecular target: human parathyroid hormone type 1 receptor (PTH1 receptor) (human) (UniProt Q03431); assay: radioligand binding, HEK293 membranes, 10 µM GTPγS, 43 000 cpm added
[10] = molecular target: human parathyroid hormone type 2 receptor (PTH2 receptor) (human) (UniProt P49190); assay: membrane radioligand binding, presence of GTPγS
[11] = molecular target: human parathyroid hormone type 1 receptor (PTH1 receptor) (human) (UniProt Q03431); assay: displacement of [125I][Nle8,21,Tyr34]rPTH(1-34), HEK293 membranes, 10 µM GTPγS
[12] = molecular target: human parathyroid hormone type 1 receptor (PTH1 receptor) (human) (UniProt Q03431); assay: cell-based or functional assay
[13] = molecular target: human parathyroid hormone type 2 receptor (PTH2 receptor) (human) (UniProt P49190); assay: cell-based or functional assay; remark: listed apart in the source
[14] = molecular target: T1, human parathyroid hormone type 2 receptor (PTH2 receptor) (human, UniProt P49190 25-550); assay: displacement of [125I]TIP39, 293PTH2 membranes, filtration assay
T1 construct: whole, on cells; also called human PTH2 receptor; hPTH2 receptor

human glucagon receptor = molecular target: T2, human glucagon receptor (human, UniProt P47871 26-477); assay: displacement of [125I]glucagon, intact COS-7 cells
T2 construct: whole, on cells

[15] = molecular target: T3, human parathyroid hormone type 1 receptor (PTH1 receptor) (human, UniProt Q03431 27-593); assay: displacement of [125I][Nle8,21,Tyr34]rPTH(1-34), 293PTH1 membranes, filtration assay
T3 construct: whole, on cells; also called human PTH1 receptor
T3 sequence (looked up): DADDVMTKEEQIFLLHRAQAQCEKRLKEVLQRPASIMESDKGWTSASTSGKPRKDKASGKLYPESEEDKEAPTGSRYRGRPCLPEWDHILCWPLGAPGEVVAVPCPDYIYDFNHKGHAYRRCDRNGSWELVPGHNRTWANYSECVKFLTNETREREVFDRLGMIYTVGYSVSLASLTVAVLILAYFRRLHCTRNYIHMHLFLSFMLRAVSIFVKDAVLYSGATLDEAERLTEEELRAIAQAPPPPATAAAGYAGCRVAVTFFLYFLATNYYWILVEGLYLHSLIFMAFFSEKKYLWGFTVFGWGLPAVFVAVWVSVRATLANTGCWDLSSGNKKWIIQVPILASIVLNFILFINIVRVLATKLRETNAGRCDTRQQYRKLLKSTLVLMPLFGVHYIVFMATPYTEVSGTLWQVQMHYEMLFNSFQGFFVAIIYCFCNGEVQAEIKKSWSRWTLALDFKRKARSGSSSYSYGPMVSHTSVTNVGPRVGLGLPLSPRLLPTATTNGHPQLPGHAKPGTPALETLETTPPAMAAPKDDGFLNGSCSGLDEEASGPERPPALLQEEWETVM

[16] = molecular target: T3, human parathyroid hormone type 1 …; assay: displacement of [125I][Nle8,21,Tyr34]rPTH(1-34), 293PTH1 membranes, centrifugation assay, 10 µM GTPγS
[17] = molecular target: T1, human parathyroid hormone type 2 …; assay: displacement of [125I]TIP39, 293PTH2 membranes, centrifugation assay, 10 µM GTPγS
[18] = molecular target: T3, human parathyroid hormone type 1 …; assay: radioligand displacement, 293PTH1 membranes, centrifugation assay, 10 µM GTPγS
[19] = molecular target: T3, human parathyroid hormone type 1 …; assay: cell-based or functional assay
[20] = molecular target: T3, human parathyroid hormone type 1 …; assay: radioligand association kinetics, HEK293 membranes, filtration; value held constant in the fit of FIG. G
[21] = molecular target: T3, human parathyroid hormone type 1 …; assay: y intercept of kon(obs) against radioligand concentration, HEK293 membranes
[22] = molecular target: T3, human parathyroid hormone type 1 …; assay: dissociation time course of the radioligand, HEK293 membranes
[23] = molecular target: T3, human parathyroid hormone type 1 …; assay: kinetically derived from association and dissociation of the radioligand, HEK293 membranes
[24] = molecular target: T3, human parathyroid hormone type 1 …; assay: radioligand binding, HEK293 membranes, filtration
[25] = molecular target: T3, human parathyroid hormone type 1 …; assay: radioligand dissociation kinetics, HEK293 membranes, filtration; value held constant in the fit of FIG. G
[26] = molecular target: T3, human parathyroid hormone type 1 …; assay: saturation binding, HEK293 membranes, filtration

T1 sequence (P49190 25-550): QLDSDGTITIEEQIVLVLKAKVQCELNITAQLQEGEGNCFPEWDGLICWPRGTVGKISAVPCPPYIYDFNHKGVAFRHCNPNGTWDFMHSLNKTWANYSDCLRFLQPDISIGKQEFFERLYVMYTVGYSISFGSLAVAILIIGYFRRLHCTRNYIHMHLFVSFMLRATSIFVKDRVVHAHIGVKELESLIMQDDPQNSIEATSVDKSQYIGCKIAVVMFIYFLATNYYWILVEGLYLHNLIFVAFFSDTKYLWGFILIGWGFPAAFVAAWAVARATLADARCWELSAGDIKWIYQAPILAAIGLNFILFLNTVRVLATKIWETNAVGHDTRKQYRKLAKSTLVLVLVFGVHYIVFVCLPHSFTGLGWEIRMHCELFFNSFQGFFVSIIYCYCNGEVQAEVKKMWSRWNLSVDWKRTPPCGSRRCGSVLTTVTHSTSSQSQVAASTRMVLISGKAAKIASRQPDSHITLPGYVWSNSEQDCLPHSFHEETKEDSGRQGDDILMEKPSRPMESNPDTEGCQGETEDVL
human parathyroid hormone type 2 receptor (PTH2 receptor) (human), sequence (P49190 25-550): as above
rat PTH2 receptor, sequence (P70555 25-546): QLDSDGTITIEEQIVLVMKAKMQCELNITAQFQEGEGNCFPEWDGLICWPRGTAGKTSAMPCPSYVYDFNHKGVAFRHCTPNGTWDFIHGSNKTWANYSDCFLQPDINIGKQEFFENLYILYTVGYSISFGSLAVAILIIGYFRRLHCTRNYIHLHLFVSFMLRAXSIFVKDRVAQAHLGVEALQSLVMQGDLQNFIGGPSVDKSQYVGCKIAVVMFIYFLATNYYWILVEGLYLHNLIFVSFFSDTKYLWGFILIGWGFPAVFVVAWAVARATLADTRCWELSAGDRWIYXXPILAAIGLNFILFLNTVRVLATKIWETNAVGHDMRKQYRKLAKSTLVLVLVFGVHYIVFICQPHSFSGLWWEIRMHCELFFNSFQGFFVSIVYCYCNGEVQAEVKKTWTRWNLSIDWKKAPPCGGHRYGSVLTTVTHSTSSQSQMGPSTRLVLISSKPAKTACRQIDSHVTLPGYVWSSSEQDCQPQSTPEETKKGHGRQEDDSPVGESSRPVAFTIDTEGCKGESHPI
T2 sequence (P47871 26-477): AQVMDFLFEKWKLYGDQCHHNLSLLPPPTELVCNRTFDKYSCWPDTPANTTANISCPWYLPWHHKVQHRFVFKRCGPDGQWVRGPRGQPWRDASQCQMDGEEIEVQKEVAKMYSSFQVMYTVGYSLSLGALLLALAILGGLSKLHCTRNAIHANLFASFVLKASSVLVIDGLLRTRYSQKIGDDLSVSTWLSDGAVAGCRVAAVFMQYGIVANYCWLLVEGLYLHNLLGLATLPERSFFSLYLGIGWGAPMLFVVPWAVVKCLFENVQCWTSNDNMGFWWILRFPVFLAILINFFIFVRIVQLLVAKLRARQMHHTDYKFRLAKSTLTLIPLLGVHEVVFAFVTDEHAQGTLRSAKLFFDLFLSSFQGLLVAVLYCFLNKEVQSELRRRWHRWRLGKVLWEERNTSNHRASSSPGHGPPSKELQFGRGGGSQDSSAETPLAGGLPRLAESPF

Molecule: [Nle^8,21, Tyr^34]rPTH(1-34) amide (from UniProt P04089 32-65) (peptide)
fold increase of IC50 with GTPγS [1]: 1.5 fold
IC50 [2]: 1.1 nM

Molecule: [^125I][Nle^8,18, Tyr^34]bPTH(3-34) (from UniProt P01268 34-65) (peptide)
signal-to-noise ratio [6]: 6
koff [7]: 0.00102 s⁻¹

Molecule: [Nle^8,18, Tyr^34]bPTH(1-34) (from UniProt P01268 32-65) (peptide)
-logEC50 (cAMP accumulation) [5]: 8.41
EC50 (cAMP accumulation) [5]: 3.9 nM
Emax, % of response to 1 µM hPTH(1-34) [5]: 76%
-logEC50 (cAMP accumulation) (rat PTH2 receptor): 6.85
EC50 (cAMP accumulation) (rat PTH2 receptor): 141 nM
Emax, % of response of hPTH2r to 1 µM hPTH(1-34) (rat PTH2 receptor): 5%
Emax, % of response of rPTH2r to 3 µM rPTH(1-34) (rat PTH2 receptor): 19%

Molecule: hPTH(1-34) (from UniProt P01270 32-65) (peptide)
maximal ligand-stimulated cAMP production [5]: 4 pmol.well^-1
maximal ligand-stimulated cAMP production (25 µl assay volume) [5]: 6 pmol.well^-1
Emax, % of response of hPTH2r to 1 µM hPTH(1-34) (rat PTH2 receptor): 22%
Emax, % of response of rPTH2r to 3 µM rPTH(1-34) (rat PTH2 receptor): 43%

Molecule: PTHrP(1-34) (from UniProt P12272 37-70) (peptide)
Emax, % of response to 1 µM hPTH(1-34) [5]: 25%
Emax, % of response of hPTH2r to 1 µM hPTH(1-34) (rat PTH2 receptor): 7%
Emax, % of response of rPTH2r to 3 µM rPTH(1-34) (rat PTH2 receptor): 14%

B1: tuberinfundibular peptide of 39 residues (TIP39), bovine sequence, synthetic (peptide)
peptide: SLALADDAAFRERARLLAALERRHWLNSYMHKLLVLDAP
notes: Chemically synthesized 39 residue peptide (Anaspec or Biomolecules Midwest); also called bTIP39; synthetic hypothalamic peptide
binding result (human glucagon receptor): no binding (tested: 1 µM)
maximal effect against PTH (rat PTH2 receptor): ~3 fold

Molecule: DAAFRERARLLAALERRHWLNSYMHKLLVLDAP (also called bTIP(7-39)) [TIP(7-39)]
fold higher affinity than TIP39 [15]: 5.6 fold
-logIC50 [16]: 8.3
IC50 [16]: 5 nM
fold lower affinity than full-length TIP39 [14]: 70 fold
-logIC50 [17]: 7.01
IC50 [17]: 98 nM
fold lower binding potency than full-length TIP39 [17]: 32 fold
fold higher affinity than TIP39 [18]: 12 fold
fold-shift of rPTH(1-34) EC50 by 1 µM TIP(7-39), 20% human plasma [19]: 11 fold
fold-shift of rPTH(1-34) EC50 by 1 µM TIP(7-39), absence of plasma [19]: 7 fold

Molecule: ADDAAFRERARLLAALERRHWLNSYMHKLLVLDAP [TIP(5-39)]
binding result [14]: binds

The next lines start with the values.

koff [3]: 0.0005 s⁻¹
Emax, % of the maximal response to rPTH(1-34) (cAMP, COS-7 cells) [4]: 26%
-logEC50 (cAMP accumulation) [5]: 8.28
EC50 (cAMP accumulation) [5]: 5.2 nM
Emax, % of response to 1 µM hPTH(1-34) [5]: 37%
Molecule: [Nle^8,18, Tyr^34]bPTH(3-34) amide (from UniProt P01268 34-65) (peptide)

pA2 (shift of rPTH(1-34) cAMP EC50 by 1 µM antagonist) [5]: 6.5
pA2 as concentration [5]: 320 nM
pA2 (shift of rPTH(1-34) cAMP EC50 by 1 µM antagonist) (rat PTH2 receptor): 6.5
pA2 as concentration (rat PTH2 receptor): 310 nM
Molecule: [Nle^8,18, D-Tryp^12, Tyr^34]bPTH(7-34) amide (from UniProt P01268 38-65) (peptide)

Emax, % of response to 1 µM hPTH(1-34) [5]: 79%
Molecule: hPTH(1-84) (from UniProt P01270 32-115) (peptide)

signal-to-noise ratio [8]: 3.5 fold
total binding (cpm) [9]: 4400 cpm and 4800 cpm
signal-to-noise ratio [10]: 2 fold
Molecule: [^125I][Nle^8,21, Tyr^34]rPTH(1-34) (from UniProt P04089 32-65) (peptide)

fold difference of IC50 against TIP(7-39) [11]: 7.3 fold
Molecule: [D-Tryp^12, Tyr^34]bPTH(7-34) amide (from UniProt P01268 38-65) (peptide)

EC50 (cAMP production, HEK293 cells) [12]: 0.5 nM
-logEC50 (cAMP accumulation) [13]: 9.39
EC50 (cAMP accumulation) [13]: 0.41 nM
EC50 (cAMP production, HEK293 cells) [13]: 58000 nM
EC50 (cAMP) [13]: 0.15 nM
Emax [13]: 85%
Emax, % of response to 1 µM hPTH(1-34) [13]: 94%
-logEC50 (cAMP accumulation) (rat PTH2 receptor): 7.09
EC50 (cAMP accumulation) (rat PTH2 receptor): 81 nM
EC50 (cAMP) (rat PTH2 receptor): 49 nM
Emax, % of response of hPTH2r to 1 µM hPTH(1-34) (rat PTH2 receptor): 46%
Emax, % of response of rPTH2r to 3 µM rPTH(1-34) (rat PTH2 receptor): 100%
maximal ligand-stimulated cAMP production (50 µl-volume assays) (rat PTH2 receptor): 2.1 pmol.well^-1
Molecule: AVSEIQLMHNLGKHLASVERMQWLRKKLQDVHNF (peptide, UniProt P04089 32-65, looked up, also: binding, rPTH(1-34) denotes the [Nle8,21, Tyr34] analogue) [rPTH(1-34)]

binding result [14]: binds
Molecule: ALADDAAFRERARLLAALERRHWLNSYMHKLLVLDAP [TIP(3-39)]

-logEC50 (cAMP accumulation) [13]: 9.24
EC50 (cAMP accumulation) [13]: 0.58 nM
Emax, % of response to 1 µM hPTH(1-34) [13]: 98%
-logEC50 (cAMP accumulation) (rat PTH2 receptor): 7.72
EC50 (cAMP accumulation) (rat PTH2 receptor): 19 nM
Emax, % of response of hPTH2r to 1 µM hPTH(1-34) (rat PTH2 receptor): 28%
Emax, % of response of rPTH2r to 3 µM rPTH(1-34) (rat PTH2 receptor): 97%
B2: rPTH(1-84) (peptide, UniProt P04089 32-115, looked up)
peptide: AVSEIQLMHNLGKHLASVERMQWLRKKLQDVHNFVSLGVQMAAREGSYQRPTKKEENVLVDGNSKSLGEGDKADVDVLVKAKSQ

-logEC50 (cAMP accumulation) [13]: 8.05
EC50 (cAMP accumulation) [13]: 8.9 nM
Emax, % of response to 1 µM hPTH(1-34) [13]: 38%
Molecule: SEIQFMHNLGKHLSSMERVEWLRKKLQDVHNF (peptide, UniProt P01268 34-65, looked up) [bPTH(3-34)]

binding result [14]: binds
B3: TIP(2-39) (peptide)
peptide: LALADDAAFRERARLLAALERRHWLNSYMHKLLVLDAP
notes: N-terminally truncated TIP39 analogue from Biomolecules Midwest

kon [20]: 1.48e+06 M⁻¹ s⁻¹
koff [21]: 0.00128 s⁻¹
koff [22]: 0.000833 s⁻¹
Kd [23]: 0.57 nM
total binding: non-specific binding ratio [24]: ~5
koff [25]: 0.00085 s⁻¹
Kd [26]: 1.3 nM
B4: [^125I]TIP(7-39) (peptide)
peptide: DAAFRERARLLAALERRHWLNSY(125I)MHKLLVLDAP
notes: 2000 Ci/mmol; also called radiolabeled TIP(7-39)
